Columns and labels:
293T/EPOR/CD131 cells = target: T1, 293T/EPOR/CD131 cells (Homo sapiens, UniProt P19235); assay: Staining of 293T/EPOR/CD131 cells with purified antibodies; format: binding
T1 construct: expressed in transfected cells; host or cells: 293T cells, lentiviral transduction
T1 sequence (P19235 25-508): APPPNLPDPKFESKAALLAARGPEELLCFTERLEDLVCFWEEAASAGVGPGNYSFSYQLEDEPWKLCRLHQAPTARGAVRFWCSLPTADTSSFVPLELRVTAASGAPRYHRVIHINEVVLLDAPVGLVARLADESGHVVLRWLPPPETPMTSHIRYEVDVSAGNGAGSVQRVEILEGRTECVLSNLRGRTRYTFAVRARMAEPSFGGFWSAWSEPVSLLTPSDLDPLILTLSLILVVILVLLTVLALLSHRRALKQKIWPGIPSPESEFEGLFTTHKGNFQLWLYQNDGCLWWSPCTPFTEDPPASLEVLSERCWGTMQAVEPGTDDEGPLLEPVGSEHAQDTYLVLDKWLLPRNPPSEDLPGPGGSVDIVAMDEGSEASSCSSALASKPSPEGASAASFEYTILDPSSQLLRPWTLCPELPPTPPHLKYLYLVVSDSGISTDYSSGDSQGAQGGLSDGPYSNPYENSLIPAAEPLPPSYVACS
Protocol: (§1) The purified antibodies were used to stain the human leukemia UT-7 cells, 293T/EPOR, 293T/CD131, and 293T/EPOR/CD131 cells to confirm antigen binding. The UT-7 cells were maintained in Roswell Park Memorial Institute (RPMI) with 10% Fetal Bovine Serum (FBS) and 5 ng/ml of recombinant human GM-CSF (Peprotech®, Cat #300-03). The 293T cells expressing hEPOR, hCD131, or both were maintained in Dulbecco's Modified Eagle Medium (DMEM) with 10% FBS. 1×10^6 cells/ml were incubated with purified hybridoma clones M2 and M41 at a 3-fold dilution series starting from 20 μg/ml for 30 minutes at 4° C. After washing, the cells were incubated with PE labeled secondary antibody and subjected to flowcytometric analysis. […] The binding profiles of the 293T/EPOR/CD131 cells are similar except the peak MFIs around 1500, half of that of the 293T/EPOR cells (FIG. 29B).

[1] = target: T2, EPO/EPOR interaction (EPOR-CD131-Fc and EPO) (Homo sapiens, UniProt P19235+P32927); assay: Octet blocking of the EPO/EPOR interaction by hybridoma supernatants; format: binding; settings: EPO 10 nM
T2 construct: Chimeric Fc fusion proteins of the extracellular domains of human EPOR and human CD131; purchased Sino Biological CT010-H02H
T2 sequence (P19235 25-250 limits assumed): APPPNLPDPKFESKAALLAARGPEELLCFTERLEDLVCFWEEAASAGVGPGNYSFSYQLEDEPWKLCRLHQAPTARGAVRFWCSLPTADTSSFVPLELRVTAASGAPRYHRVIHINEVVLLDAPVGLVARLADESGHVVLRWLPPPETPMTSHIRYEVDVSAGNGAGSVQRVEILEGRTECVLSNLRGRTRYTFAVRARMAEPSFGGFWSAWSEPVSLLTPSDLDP
T2 sequence (P32927 17-443 limits assumed): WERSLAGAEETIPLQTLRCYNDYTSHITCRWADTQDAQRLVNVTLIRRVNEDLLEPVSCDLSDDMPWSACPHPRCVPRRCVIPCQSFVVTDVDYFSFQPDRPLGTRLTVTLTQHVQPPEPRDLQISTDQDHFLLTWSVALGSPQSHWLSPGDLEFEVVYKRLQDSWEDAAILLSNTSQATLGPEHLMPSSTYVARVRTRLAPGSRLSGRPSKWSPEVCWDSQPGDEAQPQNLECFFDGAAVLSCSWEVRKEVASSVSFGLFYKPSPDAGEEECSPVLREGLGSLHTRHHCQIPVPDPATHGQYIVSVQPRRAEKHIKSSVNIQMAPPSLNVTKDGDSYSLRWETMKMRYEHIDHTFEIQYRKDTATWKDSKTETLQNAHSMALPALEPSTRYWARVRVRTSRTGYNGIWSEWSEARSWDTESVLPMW

[2] = target: T3, soluble hetero-EPOR (EPOR-CD131-Fc) (Homo sapiens, UniProt P19235+P32927); assay: Bio-layer interferometry (Octet) binding of hybridoma antibodies to EPOR-CD131-Fc; settings: hybridoma supernatants; 30 nM soluble receptor
T3 construct: Chimeric Fc fusion proteins of the extracellular domains of human EPOR and human CD131; purchased Sino Biological CT010-H02H
T3 sequence (P19235 25-250 limits assumed): T2 sequence (P19235 25-250 limits assumed)
T3 sequence (P32927 17-443 limits assumed): T2 sequence (P32927 17-443 limits assumed)
Text: (§2) The B cells from ATX-GK mice were fused with mouse myeloma cells to generate hybridoma. The hybridoma cells were screened twice. In the first screening, 293 cells expressing human EPOR, human CD131, or both were used as the primary screen. 87 hybridoma antibodies have been isolated by positive staining on 293T cells expressing human EPOR (hEPOR), human CD131 (hCD131), or both, with the hybridoma supernatants (Table 11 and FIG. 17). Expression of EPOR and CD131 was confirmed by flow cytometry with Phycoerythrin (PE)-labeled anti-EPOR (R&D Systems, Cat #FAB307P) and Alexa Fluor® 647 (AF647)-labeled anti-CD131 (BD Biosciences, Cat #564191), respectively (FIG. 28B). All hybridoma clones were purified and sequenced. Binding kinetics with soluble hetero-EPOR (EPOR-CD131-Fc), soluble EPO receptor subunit of hetero-EPOR (EPOR-Fc), and soluble CD131 subunit of hetero-EPOR (CD131-Fc) were measured using bio-layer interferometry (Octet®) by capturing the hybridoma antibodies in the supernatants on biosensors coated with anti-mouse Fc first and dipping the biosensors into the solutions containing 30 nM of the soluble receptor Fc fusion proteins. The supernatants were also used to block the interaction between EPO and EPOR. The soluble EPOR-CD131-Fc was first captured on biosensors coated with anti-human Fc and then dipped into 10 nM of EPO with or without the hybridoma supernatants. […]

EPOR-Fc = target: T4, EPOR-Fc (Homo sapiens, UniProt P19235); assay: Bio-layer interferometry (Octet) binding of hybridoma antibodies to EPOR-Fc; settings: hybridoma supernatants; 30 nM soluble receptor
T4 construct: The extracellular domains of EPOR or CD131 are produced as soluble Fc fusion proteins; purchased Sino Biological 10707-H02H
T4 sequence (P19235 25-250 limits assumed): T2 sequence (P19235 25-250 limits assumed)
Text: as §2

EPOR (UT-7 cells) = target: T5, EPOR (UT-7 cells) (Homo sapiens, UniProt P19235); assay: Flow-based phosphorylated Stat5 assay, blocking by anti-EPOR antibodies; format: cell-based; settings: 20 μg/ml antibody; 0.1 μg/ml recombinant human EPO
T5 construct: endogenous in cells; host or cells: UT-7 human leukemia cells
T5 sequence (P19235 25-508): T1 sequence (P19235 25-508)
Protocol: EPOR activation leads to phosphorylation of Stat5. A flow-based assay on phosphorylated Stat5 was set up to test the blocking activities of anti-EPOR antibodies. The UT-7 cells were cultured without GM-CSF for overnight before the EPO stimulation. 3×10^6 cells/ml were incubated with 20 μg/ml of anti-EPOR for 15 minutes before stimulation with 0.1 μg/ml of recombinant human EPO (Peprotech®, Cat #100-64) for 10 minutes at 37° C. The cells were fixed immediately with fixation buffer (Cytofix™ buffer; BD Biosciences, Cat #554655) and permeabilized with methanol. After washing, cells were stained with PE labeled anti-Stat5 (BD Biosciences, Cat #612567) and subjected to flow cytometry analysis.

UT-7 cells = target: T6, UT-7 cells (Homo sapiens, UniProt P19235); assay: Staining of UT-7 cells with purified antibodies; format: binding
T6 construct: endogenous in cells; host or cells: UT-7 human leukemia cells
T6 sequence (P19235 25-508): T1 sequence (P19235 25-508)
Protocol: as §1

peak MFI (293T/EPOR/CD131 cells): around 1500
blocking of the EPO/EPOR interaction [1]: nearly complete blocking
binding to EPOR-CD131-Fc [2]: potent binding
binding to EPOR-Fc (EPOR-Fc): potent binding
blocking of Stat5 phosphorylation (EPOR (UT-7 cells)): complete blocking
MFI (UT-7 cells): ~18,000
B1: EPORab - M2: hybridoma antibody clone, VH/VK in Table 10 (antibody, V domains shown)
VH: QVQLVESGGGLVKPGGSLRLSCAASGFTFSDSYMSWIRQAPGKGLEWVSYISNSGSYMYYADSVKGRFTISRDNAKNSLYLQMNNLRAEDTAVYYCARDKLGIGDYWGQGTLVTVSS
VL: DIQMTQSPSSLSASVGDRVTITCRASQGIRNDLGWFQQKPGKAPKRLIYAASRLQSGVPSRFSGSGSGTEFTLTISSLQPEDFATYCCLQHHTYPPTFGQGTKVEIK
